Source: publication PMC10635376, “New insights into the mechanism and DNA-sequence specificity of INO80 chromatin remodeling” (Research Square, 2023)

Target: Recombinant Xenopus laevis histone octamer reconstituted into 70N5 mononucleosomes (Xenopus laevis)
Assay: native gel or EMSA; 70N5 601 nucleosomes with photo-reactive DNA bound with saturating INO80 at 30 C for 30 min; extent of binding on 4% native polyacrylamide gels

How did the percent of nucleosomes bound turn out when “Native wild-type Saccharomyces cerevisiae INO80 complex (from UniProt P53115 1-1489; P53946 1-755; P32617 1-166; P40154 1-320; Q12386 1-881; P80428 1-489; P60010 1-375)” was run?
Its percent of nucleosomes bound is over 90%.
